Reference: US20230312709A1 (GUANGDONG FEIPENG PHARMACEUTICAL, published 2023)
Like-named read-outs stand apart in the source and are kept apart here.

Legend:
[1] = target: T1, human CD47 on CCRF-CEM cells (human, UniProt Q08722 19-323); assay: flow cytometry on CCRF-CEM cells, MFI curve
T1 construct: whole, on cells
Protocol: The specific steps were as follows.
A cell line CCRF-CEM (Cell Bank of Chinese Academy of Sciences, Shanghai) expressing human CD47 was used, which belongs to human acute lymphoblastic leukemia T lymphocytes. […] Then, the cells were washed at least twice, a PE Goat anti human IgG Fc (1:500× dilution) fluorescent secondary antibody was prepared with a FCM buffer (1×PBS+3% BSA), added to a corresponding 96-well plate according to 100 μL/well, and incubated in a refrigerator at 4° C. for 30 min. The 96-well plate was taken out, and centrifuged at 250 g for 5 min, after a supernatant was carefully removed, the FCM buffer was added at 200 μL/well, and it was centrifuged again at 250 g for 5 min, the supernatant was carefully removed. The cells were washed at least twice and resuspended using 100 μL/well 1×PBS, and analyzed by the flow cytometry, and a concentration-dependent curve was fitted with GraphPad according to the mean fluorescence intensity (MFI) thereof.

[2] = target: T2, monkey CD47 on CHO-cynoCD47 cells (monkey); assay: flow cytometry on CHO-cynoCD47 cells, MFI curve
T2 construct: whole, on cells; Cell line named CHO-cynoCD47; the text calls the species 'monkey'
Protocol: Then, the cells were washed at least twice, a PE Goat anti human IgG Fc (1:500× dilution) fluorescent secondary antibody was prepared with a FCM buffer (1×PBS+3% BSA), added to a corresponding 96-well plate according to 100 μL/well, and incubated in a refrigerator at 4° C. for 30 min. The 96-well plate was taken out, and centrifuged at 250 g for 5 min, after a supernatant was carefully removed, the FCM buffer was added at 200 μL/well, and it was centrifuged again at 250 g for 5 min, the supernatant was carefully removed. The cells were washed at least twice and resuspended with 1×PBS at 100 μL/well, and analyzed by the flow cytometry, and a concentration-dependent curve was fitted with GraphPad according to MFI thereof.

[3] = target: T1, human CD47 on CCRF-CEM cells; assay: flow cytometry competition on CCRF-CEM cells; blocked ligand hSIRPα-mFC, detected with PE goat anti-mouse IgG Fc
[4] = target: T3, hCD47-ECD-HIS recombinant protein (human, UniProt Q08722 19-139, limits assumed); assay: BLI (ForteBio), antibody on AHC sensor, 100 nM CD47 antigen, 1:1 model
T3 construct: extracellular domain; also called hCD47 antigen; CD47 antigen
Protocol: An equilibrium dissociation constant (KD) of the antibody of the present application binding to human CD47 (hCD47) was determined by a biofilm interferometry (ForteBio). […] Kinetic analysis was performed with a 1:1 binding model.

[5] = target: T1, human CD47 on CCRF-CEM cells; assay: flow cytometry competition on CCRF-CEM cells; blocked ligand hSIRPα-mFC, detected with PE goat anti-mouse IgG Fc; remark: listed apart in the source

Binder	EC50 [1]	EC50 [2]	IC50 (read off the curve) [3]	Kd [4]	koff [4]	kon [4]	IC50 (read off the curve) [5]
7A11H32 (antibody, V domains shown, also called CD47 antibody) VH: QVQLVQSGAEVKKPGSSVKVSCKASGSSFTSNWMNWVRQAPGQGLEWIGMIHPSDSETRLNQKFKDRVTITADKSTSTAYMELSSLRSEDTAVYYCARGTTVVDAFAYWGQGTTVTVSS VL: DIQMTQSPSSLSASVGDRVTMTCKSSQSLLNSRTRKNYLAWYQQKPGKAPKLLIYWASTRESGVPSRFSGSGSGTDFTLTISSLQPEDFATYYCKQSYNLRTFGGGTKLEIK	0.717 nM	17.1 nM	~2 nM				
7A11H11 (antibody, V domains shown, also called CD47 antibody) VH: QVQLVQPGAEVKKPGASVKLSCKASGSSFTSNWMNWVRQAPGQGLEWIGMIHPSDSETRLNQKFKDRATLTVDKSTSTAYMELSSPRSEDTAVYYCARGTTVVDAFAYWGQGTTVTVSS VL: DIVMTQSPDSLAVSLGERATMNCKSSQSLLNSRTRKNYLAWYQQKPGQPPKLLIYWASTRESGVPDRFSGSGSGTDFTLTISSLQAEDVAVYYCKQSYNLRTFGGGTKLEIK	0.822 nM	8.93 nM	~2 nM	0.59 nM			
7A11H35 (antibody, V domains shown, also called CD47 antibody) VH: QVQLVQSGAEVKKPGSSVKVSCKASGSSFTSNWMNWVRQAPGQGLEWIGMIHPSDSETRLNQKFKDRVTITADKSTSTAYMELSSLRSEDTAVYYCARGTTVVDAFAYWGQGTTVTVSS VL: EIVMTQSPPTLSLSPGERVTMSCKSSQSLLNSRTRKNYLAWYQQKPGQAPRLLIYWASTRESGIPARFSGSGSGTDFTLTISSLQPEDFAVYYCKQSYNLRTFGGGTKLEIK	0.862 nM	4.38 nM		0.881 nM			
7A11H22 (antibody, V domains shown, also called CD47 antibody) VH: QVQLVQSGAEVKKPGASVKVSCKASGSSFTSNWMNWVRQAPGQGLEWIGMIHPSDSETRLNQKFKDRATLTVDKSTSTAYMELSSLRSEDTAVYYCARGTTVVDAFAYWGQGTTVTVSS VL: DIQMTQSPSSLSASVGDRVTMTCKSSQSLLNSRTRKNYLAWYQQKPGKAPKLLIYWASTRESGVPSRFSGSGSGTDFTLTISSLQPEDFATYYCKQSYNLRTFGGGTKLEIK	0.82 nM	8.55 nM	~2 nM	0.74 nM			
7A11H14 (antibody, V domains shown, also called CD47 antibody) VH: QVQLVQPGAEVKKPGASVKLSCKASGSSFTSNWMNWVRQAPGQGLEWIGMIHPSDSETRLNQKFKDRATLTVDKSTSTAYMELSSPRSEDTAVYYCARGTTVVDAFAYWGQGTTVTVSS VL: DIVMTQSPDSLAVSLGERATMNCKSSQSLLNTRTRKNYLAWYQQKPGQPPKLLIYWASTRESGVPDRFSGSGSGTDFTLTISSLQAEDVAVYYCKQSYNLRTFGGGTKLEIK	0.933 nM	4.96 nM		0.562 nM			
7A11H34 (antibody, V domains shown, also called CD47 antibody) VH: QVQLVQSGAEVKKPGSSVKVSCKASGSSFTSNWMNWVRQAPGQGLEWIGMIHPSDSETRLNQKFKDRVTITADKSTSTAYMELSSLRSEDTAVYYCARGTTVVDAFAYWGQGTTVTVSS VL: DIVMTQSPDSLAVSLGERATMNCKSSQSLLNTRTRKNYLAWYQQKPGQPPKLLIYWASTRESGVPDRFSGSGSGTDFTLTISSLQAEDVAVYYCKQSYNLRTFGGGTKLEIK	1.2 nM	8.61 nM					
7A11H12 (antibody, V domains shown, also called CD47 antibody) VH: QVQLVQPGAEVKKPGASVKLSCKASGSSFTSNWMNWVRQAPGQGLEWIGMIHPSDSETRLNQKFKDRATLTVDKSTSTAYMELSSPRSEDTAVYYCARGTTVVDAFAYWGQGTTVTVSS VL: DIQMTQSPSSLSASVGDRVTMTCKSSQSLLNSRTRKNYLAWYQQKPGKAPKLLIYWASTRESGVPSRFSGSGSGTDFTLTISSLQPEDFATYYCKQSYNLRTFGGGTKLEIK	0.716 nM	7.35 nM	~0.9 nM	0.459 nM			

More lines, in order of falling EC50 [2], values ahead:

EC50 [1]	EC50 [2]	IC50 (read off the curve) [3]	Kd [4]	koff [4]	kon [4]	IC50 (read off the curve) [5]	Binder
0.723 nM	7.27 nM		0.212 nM	0.000313 s⁻¹	1.48e+06 M⁻¹ s⁻¹	~2 nM	7A11H15 (antibody, V domains shown, also called CD47 antibody) VH: QVQLVQPGAEVKKPGASVKLSCKASGSSFTSNWMNWVRQAPGQGLEWIGMIHPSDSETRLNQKFKDRATLTVDKSTSTAYMELSSPRSEDTAVYYCARGTTVVDAFAYWGQGTTVTVSS VL: EIVMTQSPPTLSLSPGERVTMSCKSSQSLLNSRTRKNYLAWYQQKPGQAPRLLIYWASTRESGIPARFSGSGSGTDFTLTISSLQPEDFAVYYCKQSYNLRTFGGGTKLEIK
	5.12 nM						Hu5F9-G4 (antibody, V domains shown) VH: QVQLVQSGAEVKKPGASVKVSCKASGYTFTNYNMHWVRQAPGQRLEWMGTIYPGNDDTSYNQKFKDRVTITADTSASTAYMELSSLRSEDTAVYYCARGGYRAMDYWGQGTLVTVSS VL: DIVMTQSPLSLPVTPGEPASISCRSSQSIVYSNGNTYLGWYLQKPGQSPQLLIYKVSNRFSGVPDRFSGSGSGTDFTLKISRVEAEDVGVYYCFQGSHVPYTFGQGTKLEIKR
0.727 nM	5 nM	~2 nM	0.309 nM				7A11H42 (antibody, V domains shown, also called CD47 antibody) VH: QVQLVQSGAEVKKPGSSVKVSCKASGSSFTSNWMNWVRQAPGQGLEWIGMIHPSDSETRLNQKFQGRVTITADKSTSTAYMELSSLRSEDTAVYYCARGTTVVDAFAYWGQGTTVTVSS VL: DIQMTQSPSSLSASVGDRVTMTCKSSQSLLNSRTRKNYLAWYQQKPGKAPKLLIYWASTRESGVPSRFSGSGSGTDFTLTISSLQPEDFATYYCKQSYNLRTFGGGTKLEIK
0.76 nM	4.85 nM		0.36 nM				7A11H33 (antibody, V domains shown, also called CD47 antibody) VH: QVQLVQSGAEVKKPGSSVKVSCKASGSSFTSNWMNWVRQAPGQGLEWIGMIHPSDSETRLNQKFKDRVTITADKSTSTAYMELSSLRSEDTAVYYCARGTTVVDAFAYWGQGTTVTVSS VL: DIQMTQSPSSLSASVGDRVTMTCKSSQSLLNTRTRKNYLAWYQQKPGKAPKLLIYWASTRESGVPSRFSGSGSGTDFTLTISSLQPEDFATYYCKQSYNLRTFGGGTKLEIK
1.21 nM	4.62 nM						7A11H55 (antibody, V domains shown, also called CD47 antibody) VH: QVQLVQSGAEVKKPGSSVKVSCKASGGTFTSNWMNWVRQAPGQGLEWIGMIHPSDSETRLNQKFQGRVTITADKSTSTAYMELSSLRSEDTAVYYCARGTTVVDAFAYWGQGTTVTVSS VL: EIVMTQSPPTLSLSPGERVTMSCKSSQSLLNSRTRKNYLAWYQQKPGQAPRLLIYWASTRESGIPARFSGSGSGTDFTLTISSLQPEDFAVYYCKQSYNLRTFGGGTKLEIK
0.915 nM	4.51 nM						7A11H52 (antibody, V domains shown, also called CD47 antibody) VH: QVQLVQSGAEVKKPGSSVKVSCKASGGTFTSNWMNWVRQAPGQGLEWIGMIHPSDSETRLNQKFQGRVTITADKSTSTAYMELSSLRSEDTAVYYCARGTTVVDAFAYWGQGTTVTVSS VL: DIQMTQSPSSLSASVGDRVTMTCKSSQSLLNSRTRKNYLAWYQQKPGKAPKLLIYWASTRESGVPSRFSGSGSGTDFTLTISSLQPEDFATYYCKQSYNLRTFGGGTKLEIK
